Substrate: CC(=O)N[C@H]1[C@H](O[C@H]2[C@H](O[C@H](C)C(=O)N[C@@H](C)C(=O)N[C@H](CCC(=O)N[C@@H](CCC[C@@H](N)C(=O)O)C(=O)N[C@H](C)C(=O)O)C(=O)O)[C@@H](NC(C)=O)[C@@H]3OC[C@H]2O3)O[C@H](CO)[C@@H](O)[C@@H]1O
Assay: purified protein
Type: biochemical, Drosophila melanogaster
Settings: 20 mM HEPES pH 7.4, 2.5 mM EDTA, 37 °C, substrate 10–500 μM, releases terminal D-Ala

B1: rPGRP-SA (recombinant Drosophila PGRP-SA) (Drosophila melanogaster) (protein)
chain: GKSRQRSPANCPTIKLKRQWGGKPSLGLHYQVRPIRYVVIHHTVTGECSGLLKCAEILQNMQAYHQNELDFNDISYNFLIGNDGIVYEGTGWGLRGAHTYGYNAIGTGIAFIGNFVDKLPSDAALQAAKDLLACGVQQGELSEDYALIAGSQVISTQSPGLTLYNEIQEWPHWLSNP
notes: full-length secreted protein, own signal peptide removed, 177 residues plus C-terminal 6xHis tag; baculovirus, Hi-5 insect cells; monomer by gel filtration
  Km: 21.4 ± 1.8 µM
  kcat: 0.000133 ± 5.6e-06 s⁻¹

Source: article PMC515366, “A Drosophila Pattern Recognition Receptor Contains a Peptidoglycan Docking Groove and Unusual L,D-Carboxypeptidase Activity” (PLoS Biology, 2004)
